Test results taken from the supplement of paper PMC9112550, “Optimization of the antimicrobial peptide Bac7 by deep mutational scanning” (BMC Biology, 2022).

System: Escherichia coli TOP10
Experiment: shrunken log2 fold change of peptide-encoding DNA abundance (4.5 h post-induction vs induction); higher = less antimicrobial activity (less host growth inhibition)
Details: time post-induction: 4.5 h; library: site-saturation at positions 5, 18, 19, 20
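Also: peptides expressed intracellularly from a pBAD plasmid library in pooled LB shake-flask culture, induced with 0.3% L-arabinose, DNA abundance read by NGS, three biological replicates, DESeq2 with apeglm shrinkage.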

Sequence	shrunken log2 fold change
RRIRFRPPRLPRPRPRPREHPRP	0.0409
RRIRERPPRLPRPRPRPTDGPRP	0.158
RRIRLRPPRLPRPRPRPRNKPRP	-0.156
RRIRTRPPRLPRPRPRPHYSPRP	-0.0429
RRIRRRPPRLPRPRPRPHKLPRP	0.022
RRIRWRPPRLPRPRPRPALAPRP	0.555
RRIRHRPPRLPRPRPRPCCSPRP	-0.313
RRIRCRPPRLPRPRPRPSERPRP	-0.0162
RRIRMRPPRLPRPRPRPRCWPRP	0.666
RRIRRRPPRLPRPRPRPQHAPRP	0.314
RRIRLRPPRLPRPRPRPKNHPRP	-0.269
RRIRIRPPRLPRPRPRPNPQPRP	-0.287
RRIRLRPPRLPRPRPRPYNPPRP	-0.454
RRIRDRPPRLPRPRPRPYHNPRP	-0.461
RRIRFRPPRLPRPRPRPDKSPRP	0.053
RRIRERPPRLPRPRPRPGREPRP	0.241
RRIRKRPPRLPRPRPRPTDPPRP	0.0238
RRIRNRPPRLPRPRPRPAWVPRP	0.147
RRIRERPPRLPRPRPRPKFFPRP	-0.0207
RRIRLRPPRLPRPRPRPKRWPRP	0.356
RRIRWRPPRLPRPRPRPGNEPRP	0.403
RRIRYRPPRLPRPRPRPQPAPRP	0.0964
RRIRYRPPRLPRPRPRPMCYPRP	-0.399
RRIRQRPPRLPRPRPRPYCQPRP	-0.0564
RRIRTRPPRLPRPRPRPVQEPRP	0.207

Sequence	shrunken log2 fold change
RRIRCRPPRLPRPRPRPDYVPRP	-1.26
RRIRFRPPRLPRPRPRPAFCPRP	0.0477
RRIRTRPPRLPRPRPRPANKPRP	-0.216
RRIRYRPPRLPRPRPRPPLIPRP	-0.185
RRIRERPPRLPRPRPRPSCEPRP	-0.668
RRIRLRPPRLPRPRPRPLKLPRP	-0.117
RRIRGRPPRLPRPRPRPMNKPRP	1.69
RRIRTRPPRLPRPRPRPGTGPRP	0.257
RRIRFRPPRLPRPRPRPLSEPRP	-0.22
RRIRRRPPRLPRPRPRPNSFPRP	-0.29
RRIRMRPPRLPRPRPRPNAIPRP	0.0397
RRIRFRPPRLPRPRPRPTVMPRP	-0.0812
RRIRSRPPRLPRPRPRPVMEPRP	-0.0868
RRIRWRPPRLPRPRPRPKITPRP	0.0282
RRIRTRPPRLPRPRPRPLEHPRP	0.104
RRIRLRPPRLPRPRPRPNYYPRP	-0.773
RRIRVRPPRLPRPRPRPYPMPRP	-0.299
RRIRGRPPRLPRPRPRPESFPRP	0.0921
RRIRIRPPRLPRPRPRPIIRPRP	-0.453
RRIRFRPPRLPRPRPRPAIVPRP	-0.0488
RRIRYRPPRLPRPRPRPWIDPRP	-0.274
RRIRWRPPRLPRPRPRPVHQPRP	0.194
RRIRLRPPRLPRPRPRPIPRPRP	0.0727
RRIRIRPPRLPRPRPRPNSLPRP	-0.457
RRIRHRPPRLPRPRPRPCLFPRP	-0.229
